The target in assay [1] is CD3 (as used for the BIACORE kinetics of Table 11) (UniProt P07766). Put plainly: SPR (BIACORE). For orientation: Surface plasmon resonance follows binding to a sensor surface in real time, without labels.
A further assay addresses CD3 on T-cells (UniProt P07766). The assay is described as follows: cell-based or functional assay.

CD3 on T-cells, sequence (P07766 23-207): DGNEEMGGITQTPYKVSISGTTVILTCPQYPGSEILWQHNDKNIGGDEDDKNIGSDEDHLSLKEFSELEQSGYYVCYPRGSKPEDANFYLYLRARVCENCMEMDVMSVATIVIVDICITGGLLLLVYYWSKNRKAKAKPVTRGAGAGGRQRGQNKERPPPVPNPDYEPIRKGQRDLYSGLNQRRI
CD3 (as used for the BIACORE kinetics of Table 11), sequence (P07766 23-126): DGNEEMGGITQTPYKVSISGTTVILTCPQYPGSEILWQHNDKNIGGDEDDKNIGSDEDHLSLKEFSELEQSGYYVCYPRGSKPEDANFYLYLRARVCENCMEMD

B1: DART-A-M21 (bispecific antibody)
chain 1: DFVMTQSPDSLAVSLGERVTMSCKSSQSLLNSGNQKNYLTWYQQKPGQPPKLLIYWASTRESGVPDRFSGSGSGTDFTLTISSLQAEDVAVYYCQNDYSYPYTFGQGTKLEIKGGGSGGGGEVQLVESGGGLVQPGGSLRLSCAASGFTFSTYAMNWVRQAPGKGLEWVGRIRSKYNNYATYYADSVKDRFTISRDDSKNSLYLQMNSLKTEDTAVYYCVRHKNFGNSYVSFFAYWGQGTLVTVSSGGCGGGKVAALKEKVAALKEKVAALKEKVAALKE
chain 2: QAVVTQEPSLTVSPGGTVTLTCRSSTGAVTTSNYANWVQQKPGQAPRGLIGGTNKRAPWTPARFSGSLLGGKAALTITGAQAEDEADYYCALWYSNLWVFGGGTKLTVLGGGGSGGGGEVQLVQSGAELKKPGASVKVSCKASGYTFTDYYMKWVRQAPGQGLEWIGDIIPSNGATFYNQKFKGRVTITVDKSTSTAYMELSSLRSEDTAVYYCARSHLLRASWFAYWGQGTLVTVSSGGCGGGEVAALEKEVAALEKEVAALEKEVAALEK
The Kd is the equilibrium constant for the complex coming apart. Lower therefore signals a tighter complex. As a reminder, the koff is the rate constant with which the complex falls apart. Read a low koff as slow dissociation. A word on the kon: it is the rate constant with which the complex forms. Take B1: in assay [1], the Kd stood at 4.18 nM, the R (KD ratio to DART-A-WT) was 0.5, the R (ka ratio to DART-A-WT) stood at 4.9 and the R (kd ratio to DART-A-WT) was found to be 2.5. In assay [1], this molecule came in with a koff of 0.0103 s⁻¹ and a kon of 2.45e+06 M⁻¹ s⁻¹. Besides, in the assay with CD3 on T-cells, the EC50 of cytolysis at 18 hours (CTL assay, Pan-T-cells and MOLM-13, E:T = 5:1) is 0.026 ng/mL; the R: ratio of 18 hour EC50 to DART-A-WT (CTL assay, Pan-T-cells and MOLM-13, E:T = 5:1) was found to be 0.3; the R: ratio of 42 hour EC50 to DART-A-WT (CTL assay, Pan-T-cells and MOLM-13, E:T = 5:1) came to 0; the max % CytoTox at 18 hours (CTL assay, Pan-T-cells and MOLM-13, E:T = 5:1) turned out to be 36.5%. Also, the max % CytoTox at 42 hours (CTL assay, Pan-T-cells and MOLM-13, E:T = 5:1) with CD3 on T-cells came to 29.9%.

B2: DART-A-M10 (bispecific antibody)
chain 1: DFVMTQSPDSLAVSLGERVTMSCKSSQSLLNSGNQKNYLTWYQQKPGQPPKLLIYWASTRESGVPDRFSGSGSGTDFTLTISSLQAEDVAVYYCQNDYSYPYTFGQGTKLEIKGGGSGGGGEVQLVESGGGLVQPGGSLRLSCAASGFTFSTYAMNWVRQAPGKGLEWVGRIRSKYNNYATYYADSVKDRFTISRDDSKNSLYLQMNSLKTEDTAVYYCVRHGNIGNSYVSWFAYWGQGTLVTVSSGGCGGGKVAALKEKVAALKEKVAALKEKVAALKE
chain 2: QAVVTQEPSLTVSPGGTVTLTCRSSTGAVTTSNYANWVQQKPGQAPRGLIGGTNKRAPWTPARFSGSLLGGKAALTITGAQAEDEADYYCALWYSNLWVFGGGTKLTVLGGGGSGGGGEVQLVQSGAELKKPGASVKVSCKASGYTFTDYYMKWVRQAPGQGLEWIGDIIPSNGATFYNQKFKGRVTITVDKSTSTAYMELSSLRSEDTAVYYCARSHLLRASWFAYWGQGTLVTVSSGGCGGGEVAALEKEVAALEKEVAALEKEVAALEK
In the case of B2, in assay [1], the Kd worked out at 43.3 nM, the R (KD ratio to DART-A-WT) was 5.3, the R (ka ratio to DART-A-WT) worked out at 1.4 and the R (kd ratio to DART-A-WT) came to 7.6. In assay [1], this molecule registered a koff of 0.031 s⁻¹ and a kon of 717000 M⁻¹ s⁻¹. In addition, in the assay with CD3 on T-cells, the EC50 of cytolysis at 18 hours (CTL assay, Pan-T-cells and MOLM-13, E:T = 5:1) stood at 0.426 ng/mL; the EC50 of cytolysis at 42 hours (CTL assay, Pan-T-cells and MOLM-13, E:T = 5:1) was found to be 0.095 ng/mL; the R: ratio of 18 hour EC50 to DART-A-WT (CTL assay, Pan-T-cells and MOLM-13, E:T = 5:1) turned out to be 5.4; the R: ratio of 42 hour EC50 to DART-A-WT (CTL assay, Pan-T-cells and MOLM-13, E:T = 5:1) is 33.7. In the assay with CD3 on T-cells, the max % CytoTox at 18 hours (CTL assay, Pan-T-cells and MOLM-13, E:T = 5:1) worked out at 39.3%; the max % CytoTox at 42 hours (CTL assay, Pan-T-cells and MOLM-13, E:T = 5:1) turned out to be 29.9%.

B3: DART-A-M5 (bispecific antibody)
chain 1: DFVMTQSPDSLAVSLGERVTMSCKSSQSLLNSGNQKNYLTWYQQKPGQPPKLLIYWASTRESGVPDRFSGSGSGTDFTLTISSLQAEDVAVYYCQNDYSYPYTFGQGTKLEIKGGGSGGGGEVQLVESGGGLVQPGGSLRLSCAASGFTFSTYAMNWVRQAPGKGLEWVGRIRSKYNNYATYYADSVKDRFTISRDDSKNSLYLQMNSLKTEDTAVYYCVRHGNFGNSGVSWFAYWGQGTLVTVSSGGCGGGKVAALKEKVAALKEKVAALKEKVAALKE
chain 2: QAVVTQEPSLTVSPGGTVTLTCRSSTGAVTTSNYANWVQQKPGQAPRGLIGGTNKRAPWTPARFSGSLLGGKAALTITGAQAEDEADYYCALWYSNLWVFGGGTKLTVLGGGGSGGGGEVQLVQSGAELKKPGASVKVSCKASGYTFTDYYMKWVRQAPGQGLEWIGDIIPSNGATFYNQKFKGRVTITVDKSTSTAYMELSSLRSEDTAVYYCARSHLLRASWFAYWGQGTLVTVSSGGCGGGEVAALEKEVAALEKEVAALEKEVAALEK
In the case of B3, in assay [1], the Kd stood at 21.4 nM, the R (KD ratio to DART-A-WT) is 2.6, the R (ka ratio to DART-A-WT) is 2.6 and the R (kd ratio to DART-A-WT) amounted to 6.8. Also, in assay [1], the koff is 0.028 s⁻¹ and the kon was 1.31e+06 M⁻¹ s⁻¹. In the assay with CD3 on T-cells, the EC50 of cytolysis at 18 hours (CTL assay, Pan-T-cells and MOLM-13, E:T = 5:1) was found to be 0.225 ng/mL; the EC50 of cytolysis at 42 hours (CTL assay, Pan-T-cells and MOLM-13, E:T = 5:1) came out at 0.011 ng/mL; the R: ratio of 18 hour EC50 to DART-A-WT (CTL assay, Pan-T-cells and MOLM-13, E:T = 5:1) stood at 2.9; the R: ratio of 42 hour EC50 to DART-A-WT (CTL assay, Pan-T-cells and MOLM-13, E:T = 5:1) was 3.8. Besides, in the assay with CD3 on T-cells, the max % CytoTox at 18 hours (CTL assay, Pan-T-cells and MOLM-13, E:T = 5:1) is 40.8%; the max % CytoTox at 42 hours (CTL assay, Pan-T-cells and MOLM-13, E:T = 5:1) stood at 28.4%.

B4: DART-A-M16 (bispecific antibody)
chain 1: DFVMTQSPDSLAVSLGERVTMSCKSSQSLLNSGNQKNYLTWYQQKPGQPPKLLIYWASTRESGVPDRFSGSGSGTDFTLTISSLQAEDVAVYYCQNDYSYPYTFGQGTKLEIKGGGSGGGGEVQLVESGGGLVQPGGSLRLSCAASGFTFSTDAMNWVRQAPGKGLEWVGRIRSKYNNYATYYADSVKDRFTISRDDSKNSLYLQMNSLKTEDTAVYYCVRHGNFGNSYVSWFAYWGQGTLVTVSSGGCGGGKVAALKEKVAALKEKVAALKEKVAALKE
chain 2: QAVVTQEPSLTVSPGGTVTLTCRSSTGAVTTSNYANWVQQKPGQAPRGLIGGTNKRAPWTPARFSGSLLGGKAALTITGAQAEDEADYYCALWYSNLWVFGGGTKLTVLGGGGSGGGGEVQLVQSGAELKKPGASVKVSCKASGYTFTDYYMKWVRQAPGQGLEWIGDIIPSNGATFYNQKFKGRVTITVDKSTSTAYMELSSLRSEDTAVYYCARSHLLRASWFAYWGQGTLVTVSSGGCGGGEVAALEKEVAALEKEVAALEKEVAALEK
Take B4: in assay [1], the Kd was 301 nM, the R (KD ratio to DART-A-WT) worked out at 37, the R (ka ratio to DART-A-WT) was 0.7 and the R (kd ratio to DART-A-WT) is 25. In assay [1], this molecule displayed a koff of 0.104 s⁻¹ and an on-rate (kon) of 347000 M⁻¹ s⁻¹.

B5: DART-A-M20 (bispecific antibody)
chain 1: DFVMTQSPDSLAVSLGERVTMSCKSSQSLLNSGNQKNYLTWYQQKPGQPPKLLIYWASTRESGVPDRFSGSGSGTDFTLTISSLQAEDVAVYYCQNDYSYPYTFGQGTKLEIKGGGSGGGGEVQLVESGGGLVQPGGSLRLSCAASGFTFSTYAMNWVRQAPGKGLEWVGRIRSKYNNYATYYADSVKDRFTISRDDSKNSLYLQMNSLKTEDTAVYYCVRHKNFGNSGVSWFAYWGQGTLVTVSSGGCGGGKVAALKEKVAALKEKVAALKEKVAALKE
chain 2: QAVVTQEPSLTVSPGGTVTLTCRSSTGAVTTSNYANWVQQKPGQAPRGLIGGTNKRAPWTPARFSGSLLGGKAALTITGAQAEDEADYYCALWYSNLWVFGGGTKLTVLGGGGSGGGGEVQLVQSGAELKKPGASVKVSCKASGYTFTDYYMKWVRQAPGQGLEWIGDIIPSNGATFYNQKFKGRVTITVDKSTSTAYMELSSLRSEDTAVYYCARSHLLRASWFAYWGQGTLVTVSSGGCGGGEVAALEKEVAALEKEVAALEKEVAALEK
On to B5, for which, in assay [1], the Kd turned out to be 18.9 nM, the R (KD ratio to DART-A-WT) turned out to be 2.3, the R (ka ratio to DART-A-WT) was 7.7 and the R (kd ratio to DART-A-WT) was 18. In assay [1], the koff came out at 0.0732 s⁻¹ and the kon worked out at 3.87e+06 M⁻¹ s⁻¹. Moreover, in the assay with CD3 on T-cells, the EC50 of cytolysis at 18 hours (CTL assay, Pan-T-cells and MOLM-13, E:T = 5:1) is 0.259 ng/mL; the EC50 of cytolysis at 42 hours (CTL assay, Pan-T-cells and MOLM-13, E:T = 5:1) is 0.038 ng/mL; the R: ratio of 18 hour EC50 to DART-A-WT (CTL assay, Pan-T-cells and MOLM-13, E:T = 5:1) is 3.3; the R: ratio of 42 hour EC50 to DART-A-WT (CTL assay, Pan-T-cells and MOLM-13, E:T = 5:1) turned out to be 13.5. For the same molecule, in the assay with CD3 on T-cells, the max % CytoTox at 18 hours (CTL assay, Pan-T-cells and MOLM-13, E:T = 5:1) was found to be 37.5%; the max % CytoTox at 42 hours (CTL assay, Pan-T-cells and MOLM-13, E:T = 5:1) came to 30.9%.

B6: DART-A-M14 (bispecific antibody)
chain 1: DFVMTQSPDSLAVSLGERVTMSCKSSQSLLNSGNQKNYLTWYQQKPGQPPKLLIYWASTRESGVPDRFSGSGSGTDFTLTISSLQAEDVAVYYCQNDYSYPYTFGQGTKLEIKGGGSGGGGEVQLVESGGGLVQPGGSLRLSCAASGFTFSDYAMNWVRQAPGKGLEWVGRIRSKYNNYATYYADSVKDRFTISRDDSKNSLYLQMNSLKTEDTAVYYCVRHGNFGNSYVSWFAYWGQGTLVTVSSGGCGGGKVAALKEKVAALKEKVAALKEKVAALKE
chain 2: QAVVTQEPSLTVSPGGTVTLTCRSSTGAVTTSNYANWVQQKPGQAPRGLIGGTNKRAPWTPARFSGSLLGGKAALTITGAQAEDEADYYCALWYSNLWVFGGGTKLTVLGGGGSGGGGEVQLVQSGAELKKPGASVKVSCKASGYTFTDYYMKWVRQAPGQGLEWIGDIIPSNGATFYNQKFKGRVTITVDKSTSTAYMELSSLRSEDTAVYYCARSHLLRASWFAYWGQGTLVTVSSGGCGGGEVAALEKEVAALEKEVAALEKEVAALEK
With B6, in assay [1], the Kd was determined as 46.6 nM, the R (KD ratio to DART-A-WT) came to 5.7, the R (ka ratio to DART-A-WT) was determined as 0.6 and the R (kd ratio to DART-A-WT) came out at 3.5. In assay [1], this molecule returned a koff of 0.0143 s⁻¹ and a kon of 308000 M⁻¹ s⁻¹. In the assay with CD3 on T-cells, the EC50 of cytolysis at 18 hours (CTL assay, Pan-T-cells and MOLM-13, E:T = 5:1) was determined as 0.492 ng/mL; the EC50 of cytolysis at 42 hours (CTL assay, Pan-T-cells and MOLM-13, E:T = 5:1) came to 0.11 ng/mL; the R: ratio of 18 hour EC50 to DART-A-WT (CTL assay, Pan-T-cells and MOLM-13, E:T = 5:1) is 6.2; the R: ratio of 42 hour EC50 to DART-A-WT (CTL assay, Pan-T-cells and MOLM-13, E:T = 5:1) is 39.3. In the assay with CD3 on T-cells, the max % CytoTox at 18 hours (CTL assay, Pan-T-cells and MOLM-13, E:T = 5:1) worked out at 44.7%; the max % CytoTox at 42 hours (CTL assay, Pan-T-cells and MOLM-13, E:T = 5:1) is 31.4%.

These data come from patent US20240043537A1.
